From paper PMC9185715

Experiments:
[1] = target: T1, nsp12 (RdRp);nsp7;nsp8 (SARS-CoV-2;SARS-CoV-2;SARS-CoV-2, UniProt P0DTD1;P0DTD1;P0DTD1 4393-5324;3860-3942;3943-4140, ||); test: EMSA; 2.4 uM protein; settings: protein: recombinant;recombinant;recombinant; tags: ;N-terminal His6 removed by TEV;; copies: 1;1;2
[2] = target: T1, nsp12 (RdRp);nsp7;nsp8; test: EMSA; 10 mM MgCl2; broadened shifted bands; settings: protein: recombinant;recombinant;recombinant; tags: ;N-terminal His6 removed by TEV;; copies: 1;1;2
[3] = target: T1, nsp12 (RdRp);nsp7;nsp8; test: EMSA; 10 mM MgCl2; settings: protein: recombinant;recombinant;recombinant; tags: ;N-terminal His6 removed by TEV;; copies: 1;1;2; hairpin, blunt, no 5' overhang

## TTTTCATGCTACGCGTAGTTTTCTACGCG (structured_DNA) [CoV-DNA1]
[1]
  binding result: no binding

## UUUUCAUGCUACGCGUAGUUUUCUACGCG (structured_RNA) [CoV-RNA1]
[2]
  binding result: binds

## CGCGUAGUUUUCUACGCG (structured_RNA) [CoV-RNA1 truncated]
[3]
  binding result: no binding
